# Test results as given in patent publication US20020147170A1 (priority 2000, published 2002).
# T1: CCK-BR (Homo sapiens, UniProt P32239, L325E)
# T1 construct: expressed in transfected cells; host or cells: HEK293
# T1 sequence (P32239 1-447 L325E): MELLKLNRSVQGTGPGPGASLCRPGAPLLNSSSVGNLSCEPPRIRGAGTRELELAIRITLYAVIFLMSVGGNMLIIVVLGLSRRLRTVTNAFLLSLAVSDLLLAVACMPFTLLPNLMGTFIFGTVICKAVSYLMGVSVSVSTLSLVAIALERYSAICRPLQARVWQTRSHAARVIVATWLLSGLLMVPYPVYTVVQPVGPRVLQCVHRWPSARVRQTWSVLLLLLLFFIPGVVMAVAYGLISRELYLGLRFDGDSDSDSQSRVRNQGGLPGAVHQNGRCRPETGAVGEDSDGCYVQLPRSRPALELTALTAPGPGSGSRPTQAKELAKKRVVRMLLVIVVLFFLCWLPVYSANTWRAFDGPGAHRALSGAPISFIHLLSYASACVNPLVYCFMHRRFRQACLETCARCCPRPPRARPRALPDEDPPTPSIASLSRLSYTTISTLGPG
# B1: Asn150Ala rat mu opioid receptor: rat mu opioid receptor (SEQ ID NO: 1) with Asn to Ala point mutation at position 150, expressed from pcDNA1 (protein)
# chain: MDSSTGPGNTSDCSDPLAQASCSPAPGSWLNLSHVDGNQSDPCGLNRTGLGGNDSLCPQTGSPSMVTAITIMALYSIVCVVGLFGNFLVMYVIVRYTKMKTATNIYIFNLALADALATSTLPFQSVNYLMGTWPFGTILCKIVISIDYYAMFTSIFTLCTMSVDRYIAVCHPVKALDFRTPRNAKIVNVCNWILSSAIGLPVMFMATTKYRQGSIDCTLTFSHPTWYWENLLKICVFIFAFIMPVLIITVCYGLMILRLKSVRMLSGSKEKDRNLRRITRMVLVVVAVFIVCWTPIHIYVIIKALITIPETTFQTVSWHFCIALGYTNSCLNPVLYAFLDENFKRCFREFCIPTSSTIEQQNSTRVRQNTREHPSTANTVDRTNHQLENLEAETAPLP
# B2: Leu325Glu CCK-BR mutant: human CCK-BR with point mutation Leu325Glu in the third intracellular loop (protein, UniProt P32239 1-447, looked up, variant L325E)
# Gastrin/cholecystokinin type …: T1 sequence (P32239 1-447 L325E)
# What was measured:
# [1] = biological target: T2, MC-4 receptor (Homo sapiens, UniProt P32245, D146M); assay: SMS-Luc luciferase reporter assay in HEK293 cells; type: cell-based
# T2 construct: expressed in transfected cells; host or cells: HEK293
# T2 sequence (P32245 whole entry D146M): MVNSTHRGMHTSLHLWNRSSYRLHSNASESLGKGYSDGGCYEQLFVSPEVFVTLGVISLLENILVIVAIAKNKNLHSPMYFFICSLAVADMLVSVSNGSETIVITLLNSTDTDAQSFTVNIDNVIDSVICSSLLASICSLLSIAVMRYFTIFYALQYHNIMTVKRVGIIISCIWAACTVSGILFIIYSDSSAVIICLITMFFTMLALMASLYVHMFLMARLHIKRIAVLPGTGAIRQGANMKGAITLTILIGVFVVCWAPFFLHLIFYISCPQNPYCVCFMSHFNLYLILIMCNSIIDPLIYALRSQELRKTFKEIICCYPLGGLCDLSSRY
# Description: Briefly, HEK293 cells were cotransfected, as described above, with an expression vector encoding either the wild-type MC-4 receptor or the Asp146Met mutant MC-4 receptor and the reporter construct, SMS-Luc. As a negative control, cells were transfected with SMS-Luc and pcDNA1. Basal and ligand (αMHS) induced activity of the negative control, the wild-type MC-4 receptor, and the Asp146Met mutant MC-4 receptor were measured using the luciferase assay described above.
# [2] = biological target: T2, MC-4 receptor; assay: Basal level cAMP production; type: cell-based; conditions: FIG. 2
# Description: As but one example, ligand-dependent activation of the melanocortin-4 (MC-4) receptor is assayed by measuring an increase in cAMP production (Huszar et al., Cell 88:131-141, (1997)).
# [3] = system: rat mu opioid receptor; assay: CRE-Luc luciferase reporter assay with forskolin stimulation; type: cell-based; conditions: CRE-Luc luciferase reporter, FIG. 4
# From the text: (§1) The response element employed in this assay was the cAMP-response element (CRE), which is sensitive to Gαi mediated reductions in intracellular levels of cAMP. Signaling through the rat mu opioid receptor via Gαi inhibits adenylate cyclase, causing a decrease in intracellular cellular cAMP. Therefore, an increase in rat mu opioid receptor signaling induces a decrease in CRE mediated reporter activity.
# (§2) Mutation induced Gαi-mediated decreases in intracellular cAMP were, prior to the present invention, more often measured by 1) stimulating cells with forskolin, which causes receptor-independent activation of adenylate cyclase and generates an intracellular pool of cAMP; 2) stimulating the cells with ligand; and 3) measuring the ligand-induced, receptor-dependent Gαi-mediated decrease in the intracellular cAMP pool (e.g., using a radioimmunoassay (e.g., New England Nuclear, Boston, Mass.)). […] Specifically, cells transfected with a CRE-Luc reporter construct (Stratagene, La Jolla, Calif.) and an expression vector encoding either a wild-type or a mutant rat mu opioid receptor were stimulated with 0.5 μM or 2 μM forskolin to increase the intracellular pool of cAMP. The basal (and ligand-induced) level of receptor activity was then measured using a standard luciferase assay (see FIG. 4). Coexpression of the receptor of interest with a luciferase reporter gene construct allows one to measure light emission as a readout for basal signaling.
# (§3) This decrease in activity indicates an increase in the basal level activity of the mutant rat mu opioid receptor, because activation of the rat mu opioid receptor induces a decrease in CRE-mediated reporter activity (FIG. 4, compare 0.5 μM wild-type vs. 0.5 μM mutant and 2 μM wild-type vs. 2 μM mutant).
# [4] = biological target: T3, rat mu opioid receptor (Rattus norvegicus, UniProt P33535, N150A); assay: SRE-Luc/Gq5i luciferase reporter assay in HEK293 cells; type: cell-based; conditions: see Example 1
# T3 construct: expressed in transfected cells; host or cells: HEK293 (stated for the SRE-Luc/Gq5i assay); receptor gene in pcDNA1
# From the text: (§4) A positive assay for Gαi coupling (i.e., one that yields an increase in luciferase activity upon receptor activation, instead of a negative assay, one that yields a decrease in luciferase activity upon receptor activation), provides a detectable output signal and less interassay variation. It was hypothesized that Gαi coupling could be detected by altering the signaling pathway generated by Gαi coupled receptors. A chimeric G protein (Gqi5, Broach and Thorner, Nature 384 (Suppl.): 14-16 (1996)) that contains the entire Gαq protein having five C-terminal amino acids from Gαi attached to the C-terminus of Gαq has been generated. This chimeric G protein is recognized as Gαi by Gαi coupled receptors, but switches the receptor induced signaling from Gαi to Gαq. This allows Gαi receptor coupling to be detected using a positive assay by use of the Gαq responsive SMS-Luc or SRE-Luc construct (Stratagene, La Jolla, Calif.). SMS and SRE preferably respond to Gαq mediated inositol and calcium production. Moreover, detection can be carried out in the absence of forskolin pre-stimulation of cells.
# (§5) Reagents & Solutions: The cell culture media used in the assays described below was Gibco BRL #12100-046. This media was made according to manufacturer's recipe, pH adjusted to 7.2, filtered (0.22 micron pore), and supplemented with 1% Pen/Strep (Gibco #15140-122; 100% penicillin G 10,000 units/ml, and streptomycin 10,000 μg/ml) and 10% fetal bovine serum. Cell culture media lacking 10% fetal bovine serum was also generated. DNA used in the transfection experiments was purified and quantitated by measuring the absorbance at OD260. A LucLite Luciferase Assay Kit (Packard) was used to quantitate luciferase activity. Transfections were carried out using LipofectAMINE Reagent (Gibco #18324-012).
# (§6) The rat mu opioid receptor is a Gαi coupled receptor. Therefore we chose to use the Gq5i reporter system, described in detail above (Broach and Thorner, supra), which switches the signaling pathway from Gαi to Gαq for reliable positive readout. HEK293 cells were transfected with the reporter construct SRE-Luc, an expression vector containing nucleic acid encoding Gq5i (Broach and Thorner, supra), and an expression vector containing nucleic acid encoding either the wild-type or the Asn150Ala mutant rat mu opioid receptor. Basal and ligand-stimulated luciferase activity was measured. The ligand used in this assay was [D—Ala^2—MePhe^4, Gly-ol^5]enkephalin] (DAMGO). As a negative control, HEK293 cells were transfected with pcDNA1 (empty vector DNA), SRE-Luc, and the expression vector containing nucleic acid encoding Gq5i (Broach and Thorner, supra).
# (§7) The luciferase assay was carried out as follows. On day 1, HEK293 cells in a T75 flask were washed with 15 ml serum-free media (or PBS), trypsinized with 5 ml 0.05% trypsin-EDTA (Gibco #25300-062), incubated at 37° C. for 3 minutes at which time 6-7 ml complete HEK293 media (Gibco #12100-046) and 10% Fetal Bovine Serum (Intergen #1050-90) were added. Thereafter, cells were collected in 50 ml centrifuge tubes, pelleted at 800-900 rpm (RCF˜275), and resuspend in 20 ml complete media. The cells were counted using a haemocytometer and diluted to 85,000 cells/ml in complete media. Using a repeat pipettor or cell plater, 100 μl of cells were added to each well of a Primaria 96-well plate (Falcon #353872). Cells were then incubated at 37° C., 5% CO2 until use at 48 hours.
# (§8) On day 3, cells were transfected using LipofectAMINE™ according to the manufacturer's protocol (Gibco #18324-012, Rockville, Md.).
# (§9) On day 4, cells were stimulated as follows. Ligands for the receptor, either DAMGO or a non-peptide ligand (e.g., naloxone or naltrexone), were diluted to a desired concentration in serum-free media containing 0.15 mM PMSF (or other protease inhibitor(s)). […]
# [5] = system: rat mu opioid receptor; assay: as above; type: cell-based; conditions: SRE + Gq5i
# From the text: as §4, §5, §6, §7, §8, §9
# [6] = biological target: T3, rat mu opioid receptor; assay: CRE-Luc luciferase reporter assay with forskolin stimulation; type: cell-based; conditions: CRE-Luc, 0.5 μM or 2 μM forskolin
# From the text: as §1, §2, §3
# [7] = system: mu opioid receptor; assay: Luciferase activity on DAMGO titration (FIG. 15); type: cell-based, rat; conditions: DAMGO titrated onto cells
# Description: Ligand (Damgo) was titrated onto the cells expressing either the mutant or the wild-type mu opioid receptor and the luciferase activity was measured to assess the sensitivity of the receptor to ligand stimulation.
# It is important to note that the mu opioid receptor of the invention is also hypersensitive.
# [8] = biological target: T1, CCK-BR; assay: Luciferase reporter assay (SMS-Luc, SRE-Luc) in HEK293 cells; type: cell-based
# From the text: as §1
# HEK293 cells were transfected (as described above) with SMS-Luc and an expression vector encoding any one of pcDNA1, wild-type CCK-BR, or Leu325Glu CCK-BR.
# [9] = system: CCK-BR; conditions: COS-7 cells, absence of agonist; cited from earlier work
molecule,measurement,setting,value
Asp146Met mutant MC-4 receptor: melanocortin-4 receptor with Asp at position 146 (DRY motif) replaced by Met,basal level activity vs wild-type,[1],higher basal level activity than its wild-type counterpart
same,constitutive activity by basal level cAMP production,[2],constitutive activity
"C[C@@H](NC(=O)[C@@H](N)Cc1ccc(O)cc1)C(=O)NCC(=O)N(C)[C@@H](Cc1ccccc1)C(=O)NCCO [DAMGO, [D—Ala^2—MePhe^4, Gly-ol^5]enkephalin], reference compound]",effect of agonist stimulation of the receptor on forskolin induced activity,[3],decrease in forskolin induced activity
B1,basal activity relative to the maximal level of ligand-stimulated second messenger signaling,[4],exceeded 50%
same,Average Ligand Stimulated Activity (Light Emission),"[5]; HEK293 cells, ligand DAMGO","86,996"
same,Average Basal Activity (Light Emission),"[5]; HEK293 cells, no ligand","*56,498"
same,stimulation of basal level activity,"[5]; mutant vs wild-type receptor, listed as Asn150Ala mutant mu opioid receptor",approximately 6.5 fold
same,"basal activity (forskolin-induced, no receptor stimulation) vs wild-type receptor",[6],reduction in basal activity
same,level of constitutive activity relative to ligand-stimulated activity of the wild-type receptor,[6],50%
same,sensitivity of the receptor to ligand stimulation vs wild-type,[7]; listed as Asn150Ala rat mutant mu opioid receptor,hypersensitivity
same,sensitivity of the receptor to ligand stimulation vs wild-type,[7]; listed as mutant receptor,responsive to a lower concentration of ligand than the wild-type receptor
B2,basal activity detected by the SMS and SRE response elements,"[8]; SMS and SRE response elements, Gαq coupled, FIG. 3",increase in basal activity
same,basal level activity vs wild-type CCK-BR,"[8]; SMS-Luc, HEK293 cells",increased basal level activity
same,agonist-independent constitutive activity (inositol phosphate production),[9],triggers constitutive production of inositol phosphates to levels exceeding wild-type CCK-BR
